Test results as given in PMC10273302 (Science (New York, N.Y.), 2023).

T1: EBV minimal peptide PPSTSSKLRPRWTFT (spotted for dot blot) (Human herpesvirus 4 (Epstein-Barr …))
T1 construct: also called EBV gp350 minimal peptide; 72153; source: "recombinant peptide" spotted on nitrocellulose
T1 chain: PPSTSSKLRPRWTFT


Biological target: T1, EBV minimal peptide PPSTSSKLRPRWTFT …
Assay: far-Western, overlay or dot blot
Conditions: one partner purified

Binder | binding result
EBV_c124 (antibody, V domains shown, recombinant human IgG) VH: QVQLVQSGAEVRKPGASVKVSCKASGYTFNTYFIQWVRQAPGQGLEWMGVINSSGSGTRYAPKFRGRVILTRDTSTSTAFMELSSLTSEDTAVYYCARAAEGDYGDSALDYWGQGTLVSVSS VL: SYELTQPHSVSVSPGQTASIACSGEKLDKKYTCWYQQRPGQSPVLVIYQDRKRPSGIPERFSGSNSGNTATLTISGTQAIDEADYYCQVWDSNTVVFGGGTKLTVL | binds
EBV_c124 with light chain D51K (antibody, V domains shown, source: Expi293 or ExpiCHO, recombinant; filtered culture supernatant) VH: QVQLVQSGAEVRKPGASVKVSCKASGYTFNTYFIQWVRQAPGQGLEWMGVINSSGSGTRYAPKFRGRVILTRDTSTSTAFMELSSLTSEDTAVYYCARAAEGDYGDSALDYWGQGTLVSVSS VL: SYELTQPHSVSVSPGQTASIACSGEKLDKKYTCWYQQRPGQSPVLVIYQKRKRPSGIPERFSGSNSGNTATLTISGTQAIDEADYYCQVWDSNTVVFGGGTKLTVL | binds
EBV_c9 (antibody, V domains shown, recombinant human IgG) VH: QVQLVQSGAEVKKPGASVKISCKASGYNFTNYYMHWVRQAPGQGLEWMGVINPHDNTNYAQKFRGRFIVTKDTSTTTLHMELRGLRSEDTAVYYCARGPDYVGISSPFDYWGQGTLVTVSS VL: SHELTQPPSVPVSPGQTARITCSGDGLPKNYAYWYQQKSGQAPVLVIYEDRKRPSGIPERFSGSSSGTMATLTISGAQVEDEADYYCYSGDSNGNHWVFGGGTKLTVL | binds
EBV_c149 (antibody, V domains shown, recombinant human IgG) VH: QVQLVQSGAEVKKPGASVKVSCKASGYNFTNYYMHWVRQAPGQGLEWMGVINPDGGSTSYAQKFRGRFIVTRDTSTTTLHMELRSLRSEDTAVYFCARGPDYVGISSPFDFWGQGTLVTVSS VL: SHELTQPPSVPVSPGQTARITCSGDGLPKNYAYWYQQKSGQAPVLVIYEDRKRPSGIPERFSGSSSGTMATLTISGAQVEDEADYYCYSGDSNGNHWVFGGGTKLTVL | binds
EBV_c19 (antibody, V domains shown, recombinant human IgG) VH: QVQLVQSGAEVKKPGASVKLSCKASGYNFTNYYMHWVRQAPGQGLEWMGVINHGGLTNYAQRFRGRFIVTRDTSTTTLHMELRSLRSEDTAVYYCARGPDYGGNSSPFDNWGQGTLVTVSS VL: SHELTQPPSVPVSPGQTARITCSGDGLPKNYAYWYQQKSGQAPVLVIYEDRKRPSGIPERFSGSSSGTMATLTISGAQVEDEADYYCYSGDINGNHWVFGGGTKLTVL | binds
EBV_c61 (antibody, V domains shown, recombinant human IgG) VH: QVQLVQSGAEVKKPGASVKVSCKASGYNFTNYFMHWVRQAPGQGLEWMGVLNSGANTNYAQKFRGRFIVTRDTSTTTLHMELRSLRSEDTAVYYCARGPDSSGISSPFDYWGQGTLVTVSS VL: SHELTQPPSVPVSPGQTARITCSGDGLPKNFAYWYQKKSGQAPVLVIYEDRKRPSGIPERFSGSSSGTTATLTISGAQEDDEAEYYCYSGDTNGNHWVFGGGTKLTVL | binds
EBV_c120 (antibody, V domains shown, recombinant human IgG; source: Expi293 or ExpiCHO, recombinant; filtered culture supernatant) VH: QVHLVQSGAEVKKPGASVKVSCKASGFAFTTYDINWVRQAAGQGLEWMGWMNPNSGNRGYAQKFQGRVTMTRNTSITTAYMELTSLTSEDTAVYYCARAYCNSNRCSPELFDPWGQGTQVTVSS VL: QSVLTQPPSVSAAPGQMVTISCSGSSSNIGNNFVSWYQQLPGTVPKYVIYDNNKRPSGIPERFSGSRSGTSATLGITGLQTGDEADYYCATWDSSLRGVVFGGGTKLTVL | binds
EBV_c10 (antibody, V domains shown, recombinant human IgG) VH: QVHLVQSGAEVKKPGASVKVSCQASGFAFTTYDINWVRQAAGHGLEWMGWMNPNSGNRGYAQKFQGRVTMTRNTSITTAYMELTSLTPDDTAVYYCARAFCNSNRCSPELFDPWGQGTQVTVSS VL: QSVLTQPPSVSAAPGQMVTISCSGGSSNIGNNFVSWYQQIPGTVPKYVIYDNDKRPSGIPERFSGSRSGTSATLVITGLQTGDEADYYCATWDNSLRGVVFGGGTKLTVL | binds
EBV_c40 (antibody, V domains shown, recombinant human IgG) VH: QVQMVQSGAEVKRPGDSVRVSCKASGYIFTNYHLHWVRQAPGQGLEWMGIVTPNGSRTNYAQKFKGRVIMSSEASTNTLYMDLSSLKSEDTAVYFCARARDLYGDSDFDYWGQGTPVMVSS VL: SYELSQPPSVSVSPGQTASVSCSGDSLGDKYVSWYQQRPGQSPVVVIYQDRKRPSGIPERFSGSNSGKAATLTISGAQAVDEATYFCQAWESSNVVFGGGTTLTVL | binds
EBV_c40 with light chain D51K (antibody, V domains shown, source: Expi293 or ExpiCHO, recombinant; filtered culture supernatant) VH: QVQMVQSGAEVKRPGDSVRVSCKASGYIFTNYHLHWVRQAPGQGLEWMGIVTPNGSRTNYAQKFKGRVIMSSEASTNTLYMDLSSLKSEDTAVYFCARARDLYGDSDFDYWGQGTPVMVSS VL: SYELSQPPSVSVSPGQTASVSCSGDSLGDKYVSWYQQRPGQSPVVVIYQKRKRPSGIPERFSGSNSGKAATLTISGAQAVDEATYFCQAWESSNVVFGGGTTLTVL | binds
EBV_c3 (antibody, V domains shown, recombinant human IgG; source: Expi293 or ExpiCHO, recombinant; filtered culture supernatant) VH: QVHLVQSGAEVKKSGASVKVSCKASGFTFTNHDINWVRQAPGQGLEWMGWINPNSGNTGFAQKFRGRVTLTRNNSITTAYMELRGLTYEDTAIYYCARAFCNSDRCSPELFDPWGQGTLVTVSS VL: QSVLTQPPSVSADPGQRVTISCSGSSSNIGNSYVSWYQQLPGTAPRFLIYDNNKRTSGIPDRFSGSKSGTSATLAITGLQTGDEADYYCATWDTSLRGVVFGGGTKLTVL | binds
EBV_c127 (antibody, V domains shown, recombinant human IgG) VH: QVHLVQSGAEVKKFGASVQVSCKASGFTFTNHDINWVRQAPGQGLEWMGWINPNSGNTGFAQKFRGRVTLTRNNSITTAYMELRGLRYEDTAIYYCARAFCNSDRCSPELFDPWGQGTLVTVSS VL: QSVLTQPPSVSADPGQRVTISCSGTSSNIGKNFVSWYQQFPGTAPKFLIYDNNKRASGIPDRFSGSKSGTSAILAITGLQTGDEADYYCATWDNSLRGVLFGGGTKLTVL | binds
EBV_c138 (antibody, V domains shown, recombinant human IgG) VH: QVHLVQSGAEVKKSGASVKVSCKASGFTFTNHDINWVRQAPGQGLEWMGWINPNSGNTGFAQKFRGRVTLTRNNSITTAYMELRGLKYEDTAIYYCARAFCNSDRCSPELFDPWGQGTLVTVSS VL: QSVLTQPPSVSADPGHRVTISCSGTSSNIGNNYVSWYQQLPGTAPRFLIYDNNKRTSGIPDRFSGSKSGTSATLTISGLQTGDEADYYCATWDTSLRGVVFGGGTKLTVL | binds
EBV_c77 (antibody, V domains shown, recombinant human IgG) VH: QVHLVQSGAEVKRSGASVKVSCKASGFTFTNHDINWVRQAPGQGLEWMGWINPNSGNTGFAQKFQGRVTLTRNNSITTAYMELRGLRYEDTAIYYCARAFCNSDRCSPELFDPWGQGTLVTVSS VL: QSVLTQPPSVSADPGQRVTISCSGTGSNIGNNYVSWYQQLPGTAPRFLIYDNNKRTSGIPDRFSGSKSGTSATLAITGLQTGDEADYYCATWDTSLRGVVFGGGTKLTVL | binds
EBV_c83 (antibody, V domains shown, recombinant human IgG) VH: QEQLVQSGTAVKKPGASVKVSCKTSRDTFTIYYIHWVRQAPGQGLEWMGIINPSGGNTSHAQKFQGRVTMTSDASTSTVYMELSSLRFEDTATYYCARVGYNWGSHSVSSPGAMDVWGQGTTVSVSS VL: SIELTQPSSVSVSPGQTATITCSGDVLPKQYAYWYQQKPGRAPMLVVYKDSERPSGISERFSGSSAGTAVTLTISAVQAEDEADYYCQSADTGGTYVIFGGGTKLTVL | binds
EBV_c57 (antibody, V domains shown, recombinant human IgG) VH: QVQLVQSGAEVKKPGASVKVSCKASGYTFTSYDINWVRQAPGQGLEWLGWMNPNNENTGYAQKFQGRIIMTRNTSIDTVYMELSSLRSEDTAVYYCEAIAAVSATEGAFDIWGQGTMVTVSS VL: not shown | binds
EBV_c101 (antibody, V domains shown, recombinant human IgG) VH: QVHLVQSGTEVKKPGASVKVSCKASGYTFIDYFIHWVRQAPGQGLEWMGIINPGGGSTSYAQKFRGRVTVTRDASTSTVYLELRSLRSDDSAVYYCARGTAVSTNLGLLFDLWGQGTLVSVSS VL: SYELTQPPSVSVSPGQTARITCSGDDLPKNYAYWYQQKSGQAPTLVINEDNKRPSGIPERFSGSSSGTMATLTISGAQVEDEADYYCFSADSSGTHSVFGGGTKVTVL | binds
EBV_c186 (antibody, V domains shown, recombinant human IgG) VH: QVHLVQSGTEVRKPGASVKISCETSGFNFSDYYVHWVRQAPGQGLEWMGIINAGGGSTSYAQRFRGRVTVTRDTSTRSVYMELRSLAPNDTAVYYCTRDRDQRLLFDYWGQGSLLIVSS VL: SSELTQPPSVSVSPGQTARITCSGDALPKNYAYWYQQKSGQAPVLVIYEDNKRPSGIPERFSGSSSGTTATLTISGAQMEDEGDYYCYSKDRFGGGTKVTVL | binds
EBV_c150 (antibody, V domains shown, recombinant human IgG) VH: QVLLVQSGAEVRKPGASVKLSCTASGYNFTNYYIHWVRQAPGQGLEWMGILNPTGGGTIYPHNFRGRVTMTRETSTSTAYMELKNLTSDDTAVYYCARVPPDDGYFDYWGQGALVTVSS VL: SYEPTQPPSVSVSPGQTARITCSGDALPKRYVYWYQQKSGQAPALVIYDDTKRPSGIPERFSGSSSGTMATLTINGAQVEDEADYYCYTTGSSVSHVVFGGGTKLTVL | binds
EBV_c63 (antibody, V domains shown, recombinant human IgG) VH: QVQLVQSGAEVKKPGASVKVSCKASGYTFTSYYIHWVRQAPGQGLEWMGIINPSDGTTDYAQRLQGRVTMTRVTSTSTVYMELSSLRSEDTAVYYCARDREQMVRGIIISNGLDVWGQGTTVTVSS VL: QSALTQPASVSGSPGQSITFSCTGTSSDVGGYNFVSWYQQHPGKAPKLMIYDVTNRPSGVSNRFSGSKSGNTASLTISGLQAEDEADYYCSSYTSSSTLVFGTGTKVTVL | binds
EBV_c98 (antibody, V domains shown, recombinant human IgG) VH: QVQLVESGGGVVQPGRSLRLSCAASGITLSSYGMHWVRQAPGKGLEWVAVISYDGSKKDYGDSVKGRFTISRDNFKNTLYLQMSSLRAEDTAVYYCAKDTIFDGMDVWGQGTTVTVSS VL: DVVMTQSPLSLPGTLGQPASISCRSSQSLVYSDGNTYLNWFQQRPGQSPRRLIYQVSNRDSGVPDRFSGSGSGTDFTLTISKVEAEDVGVYYCMQSTHWPLTFGGGTKVEIK | binds
